The results in this text go back to patent US20220098306A1 (published 2022).

Test [1] deals with T1, CD28 (antigen of the affinity determinations) (human, UniProt P10747 19-152).
In test [2] the target is T2, B7H3 (antigen of the affinity statements) (human, UniProt Q5ZPR3 29-466).
T2 chain: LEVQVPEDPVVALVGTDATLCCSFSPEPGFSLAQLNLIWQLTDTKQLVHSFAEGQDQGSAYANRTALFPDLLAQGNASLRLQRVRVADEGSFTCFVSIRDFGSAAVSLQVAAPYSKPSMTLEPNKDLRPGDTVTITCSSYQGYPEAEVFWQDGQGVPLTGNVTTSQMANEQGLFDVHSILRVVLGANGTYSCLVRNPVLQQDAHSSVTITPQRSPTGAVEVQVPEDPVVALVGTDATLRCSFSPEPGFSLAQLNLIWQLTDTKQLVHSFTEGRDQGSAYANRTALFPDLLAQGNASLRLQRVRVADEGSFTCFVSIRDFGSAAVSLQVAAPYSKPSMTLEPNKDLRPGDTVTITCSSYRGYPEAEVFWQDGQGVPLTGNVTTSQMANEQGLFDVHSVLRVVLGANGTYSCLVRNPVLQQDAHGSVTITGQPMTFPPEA
Description: -; monovalent KD.

For test [3], the target named is T2, B7H3 (antigen of the affinity …).
The target in test [4] is T3, cynomolgus B7H3.
T3 chain: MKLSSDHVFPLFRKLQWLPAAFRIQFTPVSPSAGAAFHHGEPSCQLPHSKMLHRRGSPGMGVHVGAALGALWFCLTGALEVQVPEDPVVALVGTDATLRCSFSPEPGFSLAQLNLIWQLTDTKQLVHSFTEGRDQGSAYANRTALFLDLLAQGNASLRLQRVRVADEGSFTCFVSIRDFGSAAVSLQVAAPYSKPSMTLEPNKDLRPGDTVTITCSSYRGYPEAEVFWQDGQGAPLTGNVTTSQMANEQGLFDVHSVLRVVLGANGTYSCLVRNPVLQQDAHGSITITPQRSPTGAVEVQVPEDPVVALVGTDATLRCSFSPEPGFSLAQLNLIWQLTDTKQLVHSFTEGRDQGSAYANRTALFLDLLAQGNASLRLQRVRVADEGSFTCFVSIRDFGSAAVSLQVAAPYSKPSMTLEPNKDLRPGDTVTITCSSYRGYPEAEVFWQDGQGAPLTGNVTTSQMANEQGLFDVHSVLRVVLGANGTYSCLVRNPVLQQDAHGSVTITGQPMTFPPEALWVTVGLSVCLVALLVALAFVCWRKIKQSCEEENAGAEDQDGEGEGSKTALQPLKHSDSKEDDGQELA

For test [5], the target named is T1, CD28 (antigen of the affinity …). Description: -; Fab, 2+1 CLC.

Changes are numbered by the printed parent chain. Read-outs that look alike come from different tables or passages of the source.

B1: XENP34398 (bispecific antibody)
heavy 1: EVQLLESGGGLVQPGGSLRLSCAASGFTFSSYYMSWVRQAPGKGLEWVSTISESGDSTYYADSVKGRFTISRDNSKNTLYLQMNSLRAEDTAVYYCAKSGPGLRQVGFDYWGQGTLVTVSSASTKGPSVFPLAPSSKSTSGGTAALGCLVKDYFPEPVTVSWNSGALTSGVHTFPAVLQSSGLYSLSSVVTVPSSSLGTQTYICNVNHKPSDTKVDKKVEPKSCDKTHTCPPCPAPPVAGPSVFLFPPKPKDTLMISRTPEVTCVVVDVKHEDPEVKFNWYVDGVEVHNAKTKPREEEYNSTYRVVSVLTVLHQDWLNGKEYKCKVSNKALPAPIEKTISKAKGQPREPQVYTLPPSREEMTKNQVSLTCDVSGFYPSDIAVEWESDGQPENNYKTTPPVLDSDGSFFLYSKLTVDKSRWEQGDVFSCSVLHEALHSHYTQKSLSLSPGK
heavy 2: QVQLVQSGAEVKKPGASVKVSCKASGYIFTNNYMHWVRQAPGQGLEWMGIISPSVGRTAYAQKFQGRVTMTRDTSTSTVYMELSSLRSEDTAVYYCARGGGSSPRLDYWGQGTLVTVSSASTKGPSVFPLAPSSKSTSGGTAALGCLVKDYFPEPVTVSWNSGALTSGVHTFPAVLQSSGLYSLSSVVTVPSSSLGTQTYICNVNHKPSNTKVDKKVEPKSCGKPGSGKPGSQVQLVQSGAEVKKPGASVKVSCKASGYIFTNNYMHWVRQAPGQGLEWMGIISPSVGRTAYAQKFQGRVTMTRDTSTSTVYMELSSLRSEDTAVYYCARGGGSSPRLDYWGQGTLVTVSSASTKGPSVFPLAPSSKSTSGGTAALGCLVKDYFPEPVTVSWNSGALTSGVHTFPAVLQSSGLYSLSSVVTVPSSSLGTQTYICNVNHKPSNTKVDKKVEPKSCDKTHTCPPCPAPPVAGPSVFLFPPKPKDTLMISRTPEVTCVVVDVKHEDPEVKFNWYVDGVEVHNAKTKPREEQYNSTYRVVSVLTVLHQDWLNGKEYKCKVSNKALPAPIEKTISKAKGQPREPQVYTLPPSREQMTKNQVKLTCLVKGFYPSDIAVEWESNGQPENNYKTTPPVLDSDGSFFLYSKLTVDKSRWQQGNVFSCSVLHEALHSHYTQKSLSLSPGK
light: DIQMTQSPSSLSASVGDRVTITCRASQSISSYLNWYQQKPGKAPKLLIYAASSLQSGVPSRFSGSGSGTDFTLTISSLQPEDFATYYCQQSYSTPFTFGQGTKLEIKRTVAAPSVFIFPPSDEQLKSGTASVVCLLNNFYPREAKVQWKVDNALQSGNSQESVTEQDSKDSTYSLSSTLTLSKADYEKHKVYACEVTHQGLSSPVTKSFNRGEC
Turning to B1, the Kd in test [1] came out at 63 nM; in test [2] it was 7.6 nM.

B2: XENP34732 (bispecific antibody)
heavy: EVQLLESGGGLVQPGGSLRLSCAASGFTFSNYYMAWVRQAPGKGLEWVSSISTGGGSTYYRDSVKGRFTISRDNSKSTLYLQMNSLRAEDTAVYYCTTDLSAIAATPFAYWGQGTLVTVSSASTKGPSVFPLAPSSKSTSGGTAALGCLVKDYFPEPVTVSWNSGALTSGVHTFPAVLQSSGLYSLSSVVTVPSSSLGTQTYICNVNHKPSDTKVDKKVEPKSCDKTHTCPPCPAPPVAGPSVFLFPPKPKDTLMISRTPEVTCVVVDVKHEDPEVKFNWYVDGVEVHNAKTKPREEEYNSTYRVVSVLTVLHQDWLNGKEYKCKVSNKALPAPIEKTISKAKGQPREPQVYTLPPSREEMTKNQVSLTCDVSGFYPSDIAVEWESDGQPENNYKTTPPVLDSDGSFFLYSKLTVDKSRWEQGDVFSCSVLHEALHSHYTQKSLSLSPGK
scFv-Fc: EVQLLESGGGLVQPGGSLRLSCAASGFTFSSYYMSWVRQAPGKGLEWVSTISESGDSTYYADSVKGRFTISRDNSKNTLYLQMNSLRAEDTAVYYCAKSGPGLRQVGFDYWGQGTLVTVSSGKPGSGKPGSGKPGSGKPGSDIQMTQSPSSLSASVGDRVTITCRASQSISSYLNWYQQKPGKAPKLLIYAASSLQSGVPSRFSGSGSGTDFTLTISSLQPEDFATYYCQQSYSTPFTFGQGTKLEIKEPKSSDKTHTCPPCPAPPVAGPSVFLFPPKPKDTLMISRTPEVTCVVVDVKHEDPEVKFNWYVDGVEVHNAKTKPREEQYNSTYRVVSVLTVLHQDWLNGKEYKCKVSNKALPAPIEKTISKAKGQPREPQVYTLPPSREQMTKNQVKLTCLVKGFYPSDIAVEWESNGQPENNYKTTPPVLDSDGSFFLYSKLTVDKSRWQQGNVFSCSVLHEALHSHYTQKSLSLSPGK
light: DIQMTQSPSSLSASVGDRVTITCRASQNIYTSLAWYQQKPGKAPKLLIYNAHSLQTGIPSRFSGSGSGADFTLTISSLQPEDFATYFCQQYYSGLTFGSGTKLEIKRTVAAPSVFIFPPSDEQLKSGTASVVCLLNNFYPREAKVQWKVDNALQSGNSQESVTEQDSKDSTYSLSSTLTLSKADYEKHKVYACEVTHQGLSSPVTKSFNRGEC
With B2, the Kd is 370 nM in test [1] and 8.1 nM in test [2].

B3: XENP35153 (bispecific antibody)
heavy: EVQLLESGGGLVQPGGSLRLSCAVSGFSLSSYGVIWVRQAPGKGLEYVSWVSSGGSTNYASSVKGRFTISRDTSKNTVYLQMNSLRAEDTAVYFCARGATNSGTDIWGPGTLVTVSSASTKGPSVFPLAPSSKSTSGGTAALGCLVKDYFPEPVTVSWNSGALTSGVHTFPAVLQSSGLYSLSSVVTVPSSSLGTQTYICNVNHKPSDTKVDKKVEPKSCDKTHTCPPCPAPPVAGPSVFLFPPKPKDTLMISRTPEVTCVVVDVKHEDPEVKFNWYVDGVEVHNAKTKPREEEYNSTYRVVSVLTVLHQDWLNGKEYKCKVSNKALPAPIEKTISKAKGQPREPQVYTLPPSREEMTKNQVSLTCDVSGFYPSDIAVEWESDGQPENNYKTTPPVLDSDGSFFLYSKLTVDKSRWEQGDVFSCSVLHEALHSHYTQKSLSLSPGK
scFv-Fc: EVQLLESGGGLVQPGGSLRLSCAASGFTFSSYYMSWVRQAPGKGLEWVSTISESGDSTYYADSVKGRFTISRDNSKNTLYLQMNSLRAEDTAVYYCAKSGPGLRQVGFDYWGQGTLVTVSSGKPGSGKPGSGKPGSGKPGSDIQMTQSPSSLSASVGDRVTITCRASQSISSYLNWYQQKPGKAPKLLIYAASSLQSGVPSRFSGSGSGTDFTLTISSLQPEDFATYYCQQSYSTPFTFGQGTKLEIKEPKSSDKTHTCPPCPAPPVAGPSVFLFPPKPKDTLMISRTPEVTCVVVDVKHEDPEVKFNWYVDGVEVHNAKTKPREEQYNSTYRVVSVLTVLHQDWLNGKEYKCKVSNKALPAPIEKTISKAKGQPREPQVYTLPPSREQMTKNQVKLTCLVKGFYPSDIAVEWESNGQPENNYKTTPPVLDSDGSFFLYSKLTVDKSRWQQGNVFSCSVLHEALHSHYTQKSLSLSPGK
light: DIVMTQSPSSLSASVGDRVTITCRASQSINSWLSWYQQKPGKPPKLLIYGASNLASGVPSRFKGSGSGTDFTLTISSLQPEDFATYYCQNNYGIIAAGATFGGGTKVEIKRTVAAPSVFIFPPSDEQLKSGTASVVCLLNNFYPREAKVQWKVDNALQSGNSQESVTEQDSKDSTYSLSSTLTLSKADYEKHKVYACEVTHQGLSSPVTKSFNRGEC
Take B3: the Kd was found to be 360 nM in test [1] and 0.5 nM in test [2].

B4: 2E4A3_H1.3_1A7_L1 (antibody, V domains shown)
VH: QVQLVQSGAEVKKPGASVKVSCKASGYIFTNHYMHWVRQAPGQGLEWMGIISPSAGSTDYAQKFQGRVTMTRDTSTSTVYMELSSLRSEDTAVYYCARGGGSSPRLDYWGQGTLVTVSS
VL: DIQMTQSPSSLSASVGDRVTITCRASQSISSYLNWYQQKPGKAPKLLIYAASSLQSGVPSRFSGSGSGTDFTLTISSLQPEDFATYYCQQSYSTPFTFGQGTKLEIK
Take B4: the Kd was determined as 12 nM in test [3] and 7 nM in test [4].

B5: 2E4A3_H1.22_1A7_L1 (antibody, V domains shown)
VH: B4 VH with H32N, A55V, S57R, D59A
VL: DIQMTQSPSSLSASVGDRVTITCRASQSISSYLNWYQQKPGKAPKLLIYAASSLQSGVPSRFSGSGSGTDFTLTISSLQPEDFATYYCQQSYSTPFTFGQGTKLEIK
For B5, the Kd in test [3] was 7.6 nM; in test [4], 4.3 nM.

B6: 2E4A3_H1.22_L1 (antibody, V domains shown)
VH: B4 VH with H32N, A55V, S57R, D59A
VL: not shown
As for B6, the results for the Kd in test [3] and in test [4] were 6.1 nM and 5.3 nM, respectively.

B7: 6A1_H1L1 (antibody, V domains shown)
VH: EVQLLESGGGLVQPGGSLRLSCAASGFTFSNYYMAWVRQAPGKGLEWVSSISTGGGSTYYRDSVKGRFTISRDNSKSTLYLQMNSLRAEDTAVYYCTTDLSAIAATPFAYWGQGTLVTVSS
VL: DIQMTQSPSSLSASVGDRVTITCRASQNIYTSLAWYQQKPGKAPKLLIYNAHSLQTGIPSRFSGSGSGADFTLTISSLQPEDFATYFCQQYYSGLTFGSGTKLEIK
On to B7, for which the Kd in test [3] was 8.1 nM; in test [4], 4.2 nM.

B8: 38E2_H2_L1.1 (antibody, V domains shown)
VH: EVQLVESGGGLVKPGGSLRLSCAASGFSFSVGYYMCWVRQAPGKGLEWVSCIYVGSGSSGSTYYASVKGRFTISSDTAKTSVYLQMNSLRAEDTAVYFCARTAGSDWRLDLWGQGTLVTVSS
VL: DIVMTQSPSSLSASVGDRVTITCRASQSIANELSWYQQKPGKPPKLLIYRASTLTSGVPSRFKGSGSGTDFTLTISSLQPEDFATYYCQSTYNGRAIGFGGGTKVEIK
With B8, the Kd in test [3] was found to be 0.5 nM; in test [4], 1.4 nM.

B9: H1.14_L1 (XENP31398) (antibody, V domains shown)
VH: EVQLLESGGGLVQPGGSLRLSCAASGFTFSSYYMSWVRQAPGKGLEWVSTISGSGDSTYYADSVKGRFTISRDNSKNTLYLQMNSLRAEDTAVYYCAKSGPGLRQVGFDYWGQGTLVTVSS
VL: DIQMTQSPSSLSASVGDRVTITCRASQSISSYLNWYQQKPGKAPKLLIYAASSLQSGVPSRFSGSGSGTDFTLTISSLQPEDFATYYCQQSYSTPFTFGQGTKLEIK
Consider B9, for which, in test [5], the Kd came out at 62.8 nM.

B10: 3C4_H1_L1.1 (antibody, V domains shown)
VH: EVQLLESGGGLVQPGGSLRLSCAVSGFSLSSYGVIWVRQAPGKGLEYVSWVSSGGSTNYASSVKGRFTISRDTSKNTVYLQMNSLRAEDTAVYFCARGATNSGTDIWGPGTLVTVSS
VL: DIVMTQSPSSLSASVGDRVTITCRASQSINSWLSWYQQKPGKPPKLLIYGASNLASGVPSRFKGSGSGTDFTLTISSLQPEDFATYYCQNNYGIIAAGATFGGGTKVEIK
Regarding B10, the figures for the Kd in test [3] and in test [4] were 29.7 nM and 27.2 nM, respectively.
